41 sequences from the nanobody polyreactivity screen of Harvey et al. (2022) can be followed below.

The nature of this series: yeast display, Sf9 membrane polyspecificity reagent, FACS + sequencing; frameworks hold sequencing errors. In a few lines:
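After 36–48 hours of galactose induction, yeast (Saccharomyces cerevisiae BJ5465) displaying a synthetic nanobody library were stained at 4 °C for 1 hour with 10% biotinylated, detergent-solubilized Sf9 membrane reagent. Streptavidin microbeads enriched the stained cells before FACS sorting into low and high (top ~1%) gates on anti-HA and streptavidin fluorescence. Each clone's polyreactivity label reflects its gate of origin.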
For “QVQLVETGGGLVHAGVSLRLSCAASGSILSLNAMGWYRQAPGKERELVAVISNCGGSTYYADSVKGRFTISRDNAKNTVYFQMKSLNPEDTAVYYCAVALKYQRRYYYWGQGTQVTVSS”, the “polyreactivity (PSR sort gate)” value was “high polyreactivity”.
The same measure for “QVQLVESGGGLVQAGGSLRLSCAASRIFRGYAMGWYRQAPGKERELVAAIDRGVSTYYADSVKGRFTISRDNAKNTVYLQMNSRKPEDTAVYYCAVEYWEPYDMDYWGQGTQVTVSS”: “high polyreactivity”; for “QVQLVESGGGLVQAGGSLRLSCAASGSTFKRYAMGWYRQAPGKERELVAAISLSSGSTYYADSVKGRFTISRDNAKNTVYLQMNSLKPEDTAVYYCNAAKTYPDVYEYDYWGQGTQVTVSS”: “high polyreactivity”; for “QVQLVESGGGLVQAGGSLRLSCAASGFIFASNAMGWYRQEPGKERELVASITIGDSTYYADSVKGRFTISRDNAKNTVYLQMNSLKPEDTAVYYCAAVKTVDVGYDYWGQGTQVTVSS”: “low polyreactivity”.
The value for “QVQLVESGRGLVQAGCSLRLSCASSGFIFVFNAMGRYRQAPGKERELVAAINGGDITNYAYSVKGRFTISRDNAKNTVYIQMNSLKPEDTAVYYCAADGEDSLWSGYDYDYWGLGTQVTVSS” was “low polyreactivity”.
The value for “QVQLVESGGGLVQAGGSLRLSCAASGFSFYNYAMGWYRQAPGKERELVAAISWSGGSTHYADSVKGRFTISRDNAKNTVYLQMNSLKPEDTAVYYCAKVGVLGYYTYYYWGQGTQVTVSS” was “low polyreactivity”.
As to “QVQLVESGGGLVQAGGSLRLSCAASGRTFFYNAMGWYRQAPGKERELVAAISSGGGSTYYADSVKGRFTISRDNAKNTVYLQMNSLKPEDTAVYYCNAYKGQTGGGGRYGYWGQGTQVTVSS”, the “polyreactivity (PSR sort gate)” value is reported as “high polyreactivity”.
Consider “QVQLVESGGGLVQAGGSLRLSCAASGSIFGDYAMGWYRQAPGKERELVAGITQSGSSTYYADSVKGRFTISRDNAKNTVYLQMNSLKPEDTAVYYCNKDWGPGPNEFDYWGQGTQVTVSS”, for which the “polyreactivity (PSR sort gate)” value is listed as “low polyreactivity”.
The same measure for “QVQLVESGGGLVQAGGSLRLSCAASGFIFVEYAMGWYRQAPGKERELVAAISGRDGSTYYADSVKGRFTISRDNAKNTVYLQMNSLKPEDTAVYYCAADRIHSVTRYDYDYWGQGTQVTVSS”: “low polyreactivity”.
On to “QVQLQESGGGLVQVGGSLRLSFAASGTIFIYGFLGWNLQAPGKERELVASINLGGITNYADSVKGRFTISRDNAKNTVYLQMLSLKPEDTAVYYCAAYVVTGQNYGYWGQGTQVTVSS”, for which the “polyreactivity (PSR sort gate)” value is given as “low polyreactivity”.
As to “QVQLVESGGGLVKAGGSLRLSCAASGRIFVGYGMGWYRQAPGKERELVAAITSSGGSTYYADSVKGRFTISRDNAKNTVYLQMNILKPEDTAVYYCAAERGYHVGGSGLYDYWGQGTQVNVSS”, the “polyreactivity (PSR sort gate)” value is “low polyreactivity”.
Take “QVQLVESGGGLVQAGGSLRLSCAASGITFGYYDMGWYRQAPGKERELVAAISRGGGRTYYADSVKGRFTISRDNAKNTVYLQMNSLKPEDSAVYYCAAPSRYGGRGRPTLYDYWGQGTQVTVSS”: the “polyreactivity (PSR sort gate)” value is recorded as “high polyreactivity”.
Turning to “QVQLVESGGGLVQAGGSLRLSCAASGGTFKTNAMGWYRQAPGKERELVAAITGSGTSTYYADSVKGRFTISRDNAKNTVYLQMNSLKPEDTAVYYCAADKLYQPGIGDDYWGQGTQVTVSS”, the “polyreactivity (PSR sort gate)” value is “low polyreactivity”.
With “QVQLVESGGGLVQAGGSLRLTCAASGFTFYRNTMGWYRQAPGKERELVAAITQRGGSTYYADSVKGRFTISRDNAKNTVYLQMNSLKPEDTAVYYCNRDVKVLYASSHSPYGYDHWGQGTQVTVSS”, the “polyreactivity (PSR sort gate)” value is “low polyreactivity”.
As to “QVQLVESGGGLVQAGRSLRLSCAASGRIFAQNAMGWYRQAPGKERELVAAISWGGGGTYYADSVKGRFTISRDNAKNTVYLQMNSLKPEDTAVYYCAADSPGFGAWDRYEYWGQGTQVTVSS”, the “polyreactivity (PSR sort gate)” value is recorded as “low polyreactivity”.
As to “QVQLVESGGGLVQAGGSLRLSCAASGRTFPGYAMGWYRQAPGKERELVASITSRGGITNYADSVKGRFTISRDIAKNTVYLQMLCLKPEDTSVYYCAAVSFWTMDYWGQGTQVTVSS”, the “polyreactivity (PSR sort gate)” value is recorded as “low polyreactivity”.
The value for “QVQLVESGGGLVQAGGSLRLSCAASGRIFRYNAMGLYRQAPGKERELVAAISRGGSSTYYADSVKGRFTISRDNAKNTVYLQMNSLKPEDTAVYYCNARSVVREFNYWGQGTQVTVSS” was “high polyreactivity”; that for “QFQLVESGGGLVQAGGSLRLSCAASGRIFVRYAMGWYSQAPGKERQLVAAISKSGGSTYYADSVKGRYTISRDNAKNTVYLQMNSLNPEDTAVDYCAADYTGFFPDGSDVDFDYWGQGTQVTVSS” was “low polyreactivity”; that for “QVQLVESGGGLVQARGSLRLSCAASGSTFDLYAMGWYRQAPGKEREFVAAISSSGGTTYNADSVKGRFTSSRDNAKKTVYLQRKSLKPEDTAVYYCAAVRYYESRGGYDYWGQGTQVTVSS” was “low polyreactivity”.
On to “QVQLVESGGGLVQAGGSLRISCAASGSIFHTYAMGWYRQAPGKERELVAAITVSGGDTYYADSVKGRFTISRDNAKNTVYLQMHSLKPEDTAVYYCAVDTTTSYTVEYDYWGQGTQVTVSS”, for which the “polyreactivity (PSR sort gate)” value is on record as “low polyreactivity”.
In the case of “QVQLLESGGGLVQARGSLRISCAASGLTFFFYAMGWYRQAPGKERELVAAISFSGGSTYADSVKGRFTISRDNAKNTVYLQMNSLKPEDTAVYYCNAPPQFATFTYANWRQGTQVTVSS”, the “polyreactivity (PSR sort gate)” value was “low polyreactivity”.
The same measure for “QVQLVESGGGLVQAGGSLRLSCAASGFIFGTNAMGWYRQAPGKERELVAAITSRGGSTYYADSVKGRFTISRDNAKNTVYLQMNSLKPEDTAVYYCAADKPRSYYYWGQGTQVTVSS”: “high polyreactivity”; for “QVQLVESGGGLVQAGGSLRLSCAASGRIFYYYTMGWYRPAPGKERELVARITGLTGRTYYADCVKGRFTISRDNGKNTVYLQMNSLKPEDTAVYYCNARYFRHYDYWGQGTQGTVSS”: “high polyreactivity”; for “QVQLVESGGGLVQAGGSLRLSCAASGFTFPYYAMGWYRQAPGKERELVAAISWDGGITYYADSVKGRFTISRDNAKNTVYLQMNSLKPEDTAVYYCNVEGWYDYDYWGQGTQVTVSS”: “high polyreactivity”.
The same measure for “QVQLVESGGGLVQAGGSLRLSCAASGFILARNAMGWYRQAPGKERELVAAITRRGGSTYYADSVKGRFTISRDNAKNTVYLQMNSLKPEDTAVYYCAAAAGPIPQERYYWGQGTHVTVSS”: “high polyreactivity”; for “QVQLVESGGGLVQAGGSLRLSCAASGRIFGPYTMGWYRQAPGKERELVAAISWSGGSTYYADSVKGRFTISRDNAKNTVYLQMNSLKPEDTAVFYCNADHPFPQYEGGSWGQGTQVTVSS”: “low polyreactivity”.
For the sequence “QVQLVESGGGLVQAGGSLRLSCAASGSTFGYNAMGWYRQAPGKERELVAAISYIGGSTYYADSVKGRFTISRDNAKNTVYLQMNSLKPEDTAVYYCNAAVRYYDRTVSPVKFDYWGQGTQVTVSS”, the “polyreactivity (PSR sort gate)” value is listed as “high polyreactivity”.
As to “QVQLVESGGGLVQAGGSLRLSCAASGRTFYYYSMGWYIQAPGKEREFVAAISYRGGSTYYADSVKGRFTITRDNAKNTVYFQMNSLNPEDTAVYYCAAGLVYLFISHNDYWGQGTQVTVSS”, the “polyreactivity (PSR sort gate)” value is listed as “low polyreactivity”.
The same measure for “QVQLVESGGGLVQAGGSLRLSCAASGSTFWLYAMGWYRQAPGKERELVATISERGGSTYYADSVKGRFTISRDNAKNTVYLQMNSLKPEDTAVYYCAADQFHYPRGRRYDYWGQGTQVTVSS”: “low polyreactivity”; for “QVQLVESGGGLVQAGGSLRLSCAASGSTFNKYTMGWYRQAPGKEREFVAAISRIGGSTYYADSVKGRFTISRDNAKNTVYLQMNSLKPEDTAVYYCATGVRPLRKKPVEFYHWGQGTQVTVSS”: “low polyreactivity”; for “QVQLVESGGCLVQAGGSLRLSCAASGYTLATYAMGWYRQAPGKERELVAAITSTGGTTYYADSVKGRFTISRDNAKNTVYLPMNSLKPEDTAVYYCNAAAALYKRYDYWGQGTQVTVSS”: “high polyreactivity”.
Consider “QVQLVESGGGLVQAGGSLRLSCAASGRTFKYNAMGWYRQAPGKERELVAAISSRGGSTYYADSVKGRFTISRDNAKNTVYLQMISLKPEDTAVYYGANATSSSEYGYDYWGQGTQVTVSS”, for which the “polyreactivity (PSR sort gate)” value is “high polyreactivity”.
For the sequence “QVQLVESGGGLVQAGGSLRLSCAASGYIFKYNTMGWYRQAPGKERELVAAISTGGNTYYADSVKGRFTISRDNAKNTVYLQMNSLKPEDTAVYYCAALSGAHEHFVEYDYWGQGTQVTVSS”, the “polyreactivity (PSR sort gate)” value is reported as “low polyreactivity”.
For “QVQLVESGGGLVQAGGSLRLSCAATGRTFYWNAMGWYRQAPGKERELVAAIDSSGGSTYYADSVKGRFTISRDNAKNTVYLQMNSLKPEDTAVYYCNKDYPTYDYDYWGQGTQVTVSS”, the “polyreactivity (PSR sort gate)” value is reported as “low polyreactivity”.
As for “QVQLVESGGGLVQAGGSLRLSCAASGRILPWYAMGWYRQAPGKERELAARIRSTDSTNYADSVKGRFTISRDNAKNTVYLQMNSLKPEDTAVYYCAKVQWGFPYAWLGSDYWGQGTQVTVSS”, the “polyreactivity (PSR sort gate)” value is given as “low polyreactivity”.
On to “QVQLVESGGGLVQAGGSLRLSCAASGRTFTGYAMGWYRQAPGKERELVASISGSGGRTNYADSVKGRFTISRDNAKNTVYLQMNSLKPEDTAVYYCNARAHSYRKSSYIYLPYSYDYWGQGTQVTVSS”, for which the “polyreactivity (PSR sort gate)” value was “high polyreactivity”.
On to “QVQLVESGGGLVQAGGSLRLSCAASGRTFWKYARGWYRQAPGKERELVAAISSSGGNTYYADSVKGRFTISRDNAKNTVYLQMNSLKPEDTAVYYCAARLPRGAYYYWGQGTQVTVSS”, for which the “polyreactivity (PSR sort gate)” value is “high polyreactivity”.
The same measure for “QVQLVESGVGLVQAGGSLRLSCAASGITFDENTMGWYIQAPGKERELVAAITEIGGSTYYADSVKGRFTISRDNAKNTVYLQMNSLKPEDTAVYYCNADRWVVRFVDYEYWGQGTQVTVSS”: “low polyreactivity”; for “QVQLVESGGGLVQAGGSLRLSCAASGRIFPGYAMGWYRQAPGKERELVAAISTNGGRTYYADSVKGRFTISRDNAKNTVYLQMNSLKPEDTADYYCAAESAYDAYDYWGQGTQVTVSS”: “high polyreactivity”; for “QVQLVESGGGLVQAGGSLRLSCAASGPTLHAYTMGWYRQAPGKERELVAAITRGGGNTYYADSVKGRFTISRDNAKNTVYLQMNSLKPEDTAVYYCNADVSGYLWYEYDYWGQGTQVTVSS”: “low polyreactivity”.
For the sequence “QVQLVESGGGLVQAGGSLRLSCAASGHTFRYYAMGWYRQAPGKERELVAAITGGGGSTYYADSVKGRFTISRDNAKNTVYLQMNSLKPEDTAVYYFATGGVSGIVGGDYWGQGTQVTVSS”, the “polyreactivity (PSR sort gate)” value is “low polyreactivity”.
